These results are taken from patent US20180002381A1 (HONG KONG POLYTECHNIC UNIVERSITY, published 2018).

Numbering of substitutions follows the chain as printed. Names may count otherwise. No end group written: not given here.

B1: Coiled coil domain of UVRAG (228-276) (other)
chain: TSNELKKESESLRLKILVLRNELERQKKALGREVAFLHKQQMALQDKG
notes: They have S at position 238 where the full-length entries have C; also called UVRAG coiled coil domain; UVRAG coiled coil
B2: Monomeric form of Beclin1 coiled coil domain with L182A mutation (other)
chain: DSEQLQREAKELALEEERLIQELEDVEKNRKVVAENLEKVQAEAERLDQEEAQYQREYSEFKRQQLELDDELKSVENQMRYAQMQLDKLKKTN
notes: The entry already carries L182A
B3: UVRAG (228-298) (other)
chain: TSNELKKESESLRLKILVLRNELERQKKALGREVAFLHKQQMALQDKGSAFSTEHGKLQLQKDSLSELRKE
B4: Beclin 1 coiled coil 2 (CC2) (other)
chain: EERLIQELEDVEKNRKVVAENLEKVQAEAERLDQEEAQYQREYSEFKRQ
notes: 7 heptad repeats of the Beclin1 coiled coil domain
B5: Beclin 1 coiled coil 3 (CC3) (other)
chain: RKVVAENLEKVQAEAERLDQEEAQYQREYSEFKRQQLELDDELKSVENQ
notes: as for B4
B6: UVRAG 2E (L246E/L250E), coiled coil domain as used in ITC (other)
chain: B3 chain with S11C, L19E, L23E
B7: UVRAG 6E (L232E/L239E/L246E/L250E/L264E/L271E), coiled coil domain as used in ITC (other)
chain: B3 chain with L5E, S11C, L12E, L19E, L23E, L37E, L44E
B8: UVRAG 5E (L232E/L239E/L246E/L250E/L264E), coiled coil domain as used in ITC (other)
chain: B3 chain with L5E, S11C, L12E, L19E, L23E, L37E
B9: Beclin 1 coiled coil 4 (CC4) (other)
chain: AERLDQEEAQYQREYSEFKRQQLELDDELKSVENQMRYAQMQADKLKKTN
notes: as for B4
B10: FLAG-tagged full length Mus musculus UVRAG wild type (other, not shown: small tags and cut ends)
chain: MSSCASLGGPVPLPPPGPSAALTSGAPARALHVELPSQQRRLRHLRNIAARNIVNRNGHQLLDTYFTLHLCDNEKIFKEFYRSEVIKNSLNPTWRSLDFGIMPDRLDTSVSCFVVKIWGGKEEAFQLLIEWKVYLDGLKYLGQQIHARNQNEIIFGLNDGYYGAPCEHKGHPNAQKNLLQVDQNCVRNSYDVFSLLRLHRAQCAIKQTQVTVQRLGKEIEEKLRLTSTSNELKKESECLRLKILVLRNELERQKKALGREVAFLHKQQMALQDKGSAFSTEHGKLQLQKDSLSELRKECTAKRELFLKTNAQLTIRCRQLLSELSYIYPIDLNEHKDYFVCGVKLPNSEDFQAKEDGSIAVALGYTAHLVSMISFFLQVPLRYPIIHKGSRSTIKDNINDKLTEKEREFPLYPKGGEKLQFDYGVYLLNKNIAQLRYQHGLGTPDLRQTLPNLKNFMEHGLMVRCDRHHISNAIPVPKRQSSTFGGADGGFSAGIPSPDKVHRKRASSENERLQYKTPPPSYNSALTQPGVAMPTSGDSERKVAPLSSSLDTSLDFSKENKKAGVDLGSSVSGDHGNSDSGQEQGEALPGHLAAVNGTALPSEQAGPAGTLLPGSCHPAPSAELCCAVEQAEEIIGLEATGFTSGDQLEALSCIPVDSAVAVECDEQVLGEFEEFSRRIYALSENVSSFRRPRRSSDK
B11: FLAG-tagged full length Mus musculus UVRAG 2E (L246E/L250E) (other, not shown: small tags and cut ends)
chain: B10 chain with L246E, L250E
B12: FLAG-tagged full length Mus musculus UVRAG 1E (L246E) (other, not shown: small tags and cut ends)
chain: B10 chain with L246E

Test [1] deals with T1, Beclin1 coiled coil domain (wild type) (rat, UniProt Q91XJ1 174-266).
T1 construct: residues 175-266; it pairs 1:1 with UVRAG; also called CC; entire Beclin1 coiled coil domain
Nature of the test: ITC. (In general: Isothermal titration calorimetry measures the heat released or taken up as one component is titrated into another.)

In test [2] the target is B3. Nature of the test: isothermal titration calorimetry, monomeric Beclin1 coiled coil domain (L182A) and UVRAG (228-298).
The target in test [3] is T1, Beclin1 coiled coil domain (wild type). Nature of the test: isothermal titration calorimetry, wild type Beclin1 coiled coil domain and UVRAG (228-298).
Target sequence in this assay (Q91XJ1 174-266 limits assumed): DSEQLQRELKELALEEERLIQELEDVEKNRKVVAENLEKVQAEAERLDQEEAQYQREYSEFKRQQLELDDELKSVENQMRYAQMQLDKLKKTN
For test [4], the target named is B2. Nature of the test: ITC.
For test [5], the target named is B1. Nature of the test: isothermal titration calorimetry, Beclin 1 construct against UVRAG coiled coil domain.
Test [6] addresses T1, Beclin1 coiled coil domain (wild type). Nature of the test: ITC. The source holds these as a separate data set.
For test [7], the target named is endogenous Beclin1 (UniProt Q14457 1-450). Nature of the test: cell-based or functional assay.
Sequence of endogenous Beclin1 (Q14457 whole entry): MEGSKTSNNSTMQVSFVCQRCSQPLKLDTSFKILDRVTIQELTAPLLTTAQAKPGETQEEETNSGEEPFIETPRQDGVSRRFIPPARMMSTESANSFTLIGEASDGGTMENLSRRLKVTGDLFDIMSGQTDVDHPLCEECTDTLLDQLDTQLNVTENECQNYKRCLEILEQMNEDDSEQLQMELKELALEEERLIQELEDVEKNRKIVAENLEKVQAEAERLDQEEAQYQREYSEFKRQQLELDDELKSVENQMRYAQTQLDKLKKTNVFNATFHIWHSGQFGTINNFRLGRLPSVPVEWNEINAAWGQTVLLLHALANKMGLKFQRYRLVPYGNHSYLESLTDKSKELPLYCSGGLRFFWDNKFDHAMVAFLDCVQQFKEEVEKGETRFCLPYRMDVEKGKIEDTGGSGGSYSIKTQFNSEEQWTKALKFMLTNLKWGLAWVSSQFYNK

The molecule B1 displayed a dissociation constant (Kd) in test [1] of around 0.24 µM.

In the case of B2, in test [2], the Kd is around 0.07 µM. On to B3, for which the Kd in test [3] was around 0.24 µM. The binding result in test [4] is “binds”. In the case of B4, in test [5], the Kd came to 139 µM. The same measure, in the same setting: the value for B5 was 671 µM; that for DSEQAQRELKELALEEERLIQELEDVEKNRKVVAENLEKVQAEAERLDQE (other, not fully specified) [Beclin 1 coiled coil 1 (CC1), residues 174-223] was 8.9 µM.

With B6, the binding result in test [6] is recorded as “no binding”.

B7: the binding result in test [6] is given as “no binding”.

As to B8, in test [6], the binding result was “no binding”.

On to B9, for which, in test [5], the Kd turned out to be 157 µM. In the case of B10, in test [7], the “EGFR remaining after 5 hours in A549 cells” value (“EGFR remaining after 5 hours” for short) was below 10% and the “half-life of EGFR in A549 cells” value is around 2 h.

For the molecule B11, the “EGFR remaining after 5 hours” value in test [7] is around 5%.

Regarding B12, in test [7], the “EGFR remaining after 5 hours” value is below 10% and the “half-life of EGFR in A549 cells” value is around 2 h.

What is called Kd is the free concentration of one partner at which half of the binding sites on the other are occupied at equilibrium, for simple one-to-one binding.
